On the set-up of series [1]: method as in PMID 21968061. The following applies: DPPH radical scavenging (antioxidant activity); cited from earlier work.
Substrate in series [2]: COc1ccc(-c2oc3c(CCC(C)(C)O)c(O)cc(O)c3c(=O)c2O)cc1
As to the kind of experiment: Glucuronidation by expressed UGT1A7. Format: in vitro ADME, human. Particulars: pH 7.4. On the procedure: (§1) The reaction was terminated by adding ice-cold acetonitrile. […] All experiments were performed in triplicate.
(§2) The parameter were as follow. V is the formation rate of the product. Vmax is the maximal velocity. […] Ksi is the substrate inhibition constant. […] (1) V=Vmax ×[S]/Km+[S] (2) V=Vmax ×[S]/Km + [S](1+[S]/Ksi)

Substrate in series [3]: COc1ccc(-c2oc3c(CCC(C)(C)O)c(O)cc(O)c3c(=O)c2O)cc1
Description: not read. Particulars: pH 7.4.
Description: Briefly, the incubation mixture mainly contained 50 mM Tris-hydrochloric acid buffer (pH 7.4), 0.88 mM MgCl2, 22 µg/mL alamethicin, 4.4 mM saccharolactone and 3.5 mM UDPGA [32]. The reaction was terminated by adding ice-cold acetonitrile. […] The supernatant was subjected to UPLC/Q-TOF-MS (Waters Corporation, Manchester, UK) analysis. […] All experiments were performed in triplicate. Preliminary experiments were performed to ensure that the rates of glucuronidation were determined under linear conditions with respect to the incubation time and protein concentration.
The detection wavelength was set at 270 nm, and the injection volume was 8 µL.
Appropriate models were selected by visual inspection of the Eadie–Hofstee plot [34]. Model fitting and parameter estimation were performed by GraphPad Prism V5 software (GraphPad Software, Inc., San Diego, CA, USA).
V is the formation rate of the product. Vmax is the maximal velocity. Km is the Michaelis constant, and [S] is the substrate. Ksi is the substrate inhibition constant. The intrinsic clearance (CLint) was derived by Vmax/Km for the Michaelis–Menten and substrate inhibition models [12]. (1) V=Vmax ×[S]/Km+[S] (2) V=Vmax ×[S]/Km + [S](1+[S]/Ksi)
(§3) The contribution of individual expressed UGT enzymes to wushanicaritin glucuronidation in HLM was evaluated by the relative activity factor (RAF) approach as described in previous studies [2, 12]. The relative activity factor was defined as the activity ratio of HLM to an expressed UGT enzyme (Supersome) toward a probe substrate for this enzyme using Equation (3). The relative amount of wushanicaritin glucuronidation in HLM attributed to an expressed UGT enzyme was estimated by multiplying the glucuronidation activity (i.e., the intrinsic clearance) derived with this enzyme by the corresponding RAF. […] The contributions of individual UGT enzyme were calculated according to Equation (4). (3) RAF=CLint{probe,pHLM}/CLint{probe,Supersome} (4) Contribution of UGTs=CLint(wushanica ritin,UGTs)/CLint(wushanica ritin,pHLM)×RAF

Substrate in series [4]: COc1ccc(-c2oc3c(CCC(C)(C)O)c(O)cc(O)c3c(=O)c2O)cc1
As to the kind of experiment: Glucuronidation by expressed UGT1A3. Particulars: pH 7.4. Format: in vitro ADME, human.
Description: Wushanicaritin was incubated with HLM, HIM and expressed UGTs enzymes to determine the rates of glucuronidation as published previously [12, 23, 31]. Briefly, the incubation mixture mainly contained 50 mM Tris-hydrochloric acid buffer (pH 7.4), 0.88 mM MgCl2, 22 µg/mL alamethicin, 4.4 mM saccharolactone and 3.5 mM UDPGA [32]. The reaction was terminated by adding ice-cold acetonitrile. The samples were vortexed and centrifuged at 13,800× g for 10 min. The supernatant was subjected to UPLC/Q-TOF-MS (Waters Corporation, Manchester, UK) analysis. […] Similarly, wushanicaritin was incubated with DLM, RLM, MkLM, RaLM and GpLM in the same way as for HLM. All experiments were performed in triplicate. Preliminary experiments were performed to ensure that the rates of glucuronidation were determined under linear conditions with respect to the incubation time and protein concentration.
Serial concentrations of wushanicaritin (0.156–20 µM) were incubated with HLM, HIM and expressed UGTs enzymes to determine wushanicaritin glucuronidation rates. […] Appropriate models were selected by visual inspection of the Eadie–Hofstee plot [34]. Model fitting and parameter estimation were performed by GraphPad Prism V5 software (GraphPad Software, Inc., San Diego, CA, USA).
The parameter were as follow. V is the formation rate of the product. Vmax is the maximal velocity. Km is the Michaelis constant, and [S] is the substrate. Ksi is the substrate inhibition constant. The intrinsic clearance (CLint) was derived by Vmax/Km for the Michaelis–Menten and substrate inhibition models [12]. (1) V=Vmax ×[S]/Km+[S] (2) V=Vmax ×[S]/Km + [S](1+[S]/Ksi)
as §3

Substrate in series [5]: C[C@H](CCC(=O)O)[C@H]1CC[C@H]2[C@@H]3[C@H](O)C[C@@H]4C[C@H](O)CC[C@]4(C)[C@H]3CC[C@]12C
Description: not read. The following applies: other: probe substrate glucuronidation; UGT1A3; pH 7.4.

Substrate in series [6]: COc1ccc(-c2oc3c(CCC(C)(C)O)c(O)cc(O)c3c(=O)c2O)cc1
Description: Glucuronidation by expressed UGT1A8. Type of series: in vitro ADME, human. Particulars: pH 7.4. As for the experimental part: as §1, §2

Setting [7] is: other: formation of G1 (3-O-glucuronide).
[8] abbreviates: other: formation of G2 (7-O-glucuronide).
The mark [9] stands for this setting: other: formation of G1 (3-O-glucuronide), UGT1A1.
Setting [10] is: other: formation of G2 (7-O-glucuronide), UGT1A1.
Setting [11] is: other: formation of G1 (3-O-glucuronide), UGT2B7.
Where [12] appears, read: other: formation of G2 (7-O-glucuronide), UGT2B7.

The text below walks through data of publication PMC5618632, “In Vitro Glucuronidation of Wushanicaritin by Liver Microsomes, Intestine Microsomes and Expressed Human UDP-Glucuronosyltransferase Enzymes” (International Journal of Molecular Sciences, 2017).

Usually IC50 stands for the point on the concentration scale where inhibition reaches its midpoint. As to `O=C1O[C@H]([C@@H](O)CO)C(O)=C1O` [vitamin C, reference compound], the IC50 in series [1] is 32 µM.

B1: expressed human UGT1A7 (Homo sapiens) (protein)
chain: GKLLVVPMDGSHWFTMQSVVEKLILRGHEVVVVMPEVSWQLGRSLNCTVKTYSTSYTLEDQDREFMVFADARWTAPLRSAFSLLTSSSNGIFDLFFSNCRSLFNDRKLVEYLKESCFDAVFLDPFDACGLIVAKYFSLPSVVFARGIFCHYLEEGAQCPAPLSYVPRLLLGFSDAMTFKERVWNHIMHLEEHLFCPYFFKNVLEIASEILQTPVTAYDLYSHTSIWLLRTDFVLEYPKPVMPNMIFIGGINCHQGKPVPMEFEAYINASGEHGIVVFSLGSMVSEIPEKKAMAIADALGKIPQTVLWRYTGTRPSNLANNTILVKWLPQNDLLGHPMTRAFITHAGSHGVYESICNGVPMVMMPLFGDQMDNAKRMETKGAGVTLNVLEMTSEDLENALKAVINDKSYKENIMRLSSLHKDRPVEPLDLAVFWVEFVMRHKGAPHLRPAAHDLTWYQYHSLDVIGFLLAVVLTVAFITFKCCAYGYRKCLGKKGRVKKAHKSKTH
notes: purchased Corning Biosciences
By Vmax is commonly meant the top rate of the reaction or transport when substrate is in excess. With B1, in series [2] (setting [7]), the K0.5 was 0.47 ± 0.03 µM, the Vmax is 0.00017 µmol/min/mg and the Vmax/Km was 360 µL/min/mg. Also, in series [2] (setting [8]), the K0.5 amounted to 0.61 ± 0.08 µM, the Vmax was determined as 0.00023 µmol/min/mg and the Vmax/Km amounted to 380 µL/min/mg.

B2: expressed human UGT1A1 (Homo sapiens) (protein)
chain: HAGKILLIPVDGSHWLSMLGAIQQLQQRGHEIVVLAPDASLYIRDGAFYTLKTYPVPFQREDVKESFVSLGHNVFENDSFLQRVIKTYKKIKKDSAMLLSGCSHLLHNKELMASLAESSFDVMLTDPFLPCSPIVAQYLSLPTVFFLHALPCSLEFEATQCPNPFSYVPRPLSSHSDHMTFLQRVKNMLIAFSQNFLCDVVYSPYATLASEFLQREVTVQDLLSSASVWLFRSDFVKDYPRPIMPNMVFVGGINCLHQNPLSQEFEAYINASGEHGIVVFSLGSMVSEIPEKKAMAIADALGKIPQTVLWRYTGTRPSNLANNTILVKWLPQNDLLGHPMTRAFITHAGSHGVYESICNGVPMVMMPLFGDQMDNAKRMETKGAGVTLNVLEMTSEDLENALKAVINDKSYKENIMRLSSLHKDRPVEPLDLAVFWVEFVMRHKGAPHLRPAAHDLTWYQYHSLDVIGFLLAVVLTVAFITFKCCAYGYRKCLGKKGRVKKAHKSKTH
As to B2, in “not read [3]” (setting [9]), the K0.5 was determined as 0.98 ± 0.20 µM, the Vmax is 0.00113 µmol/min/mg and the Vmax/Km was 1160 µL/min/mg. Besides, in the series “not read [3]” (setting [10]), the K0.5 was 0.68 ± 0.08 µM, the Vmax was found to be 0.00011 µmol/min/mg and the Vmax/Km came to 160 µL/min/mg.

B3: expressed human UGT1A3 (Homo sapiens) (protein)
chain: GKVLVVPIDGSHWLSMREVLRELHARGHQAVVLTPEVNMHIKEENFFTLTTYAISWTQDEFDRHVLGHTQLYFETEHFLKKFFRSMAMLNNMSLVYHRSCVELLHNEALIRHLNATSFDVVLTDPVNLCAAVLAKYLSIPTVFFLRNIPCDLDFKGTQCPNPSSYIPRLLTTNSDHMTFMQRVKNMLYPLALSYICHAFSAPYASLASELFQREVSVVDILSHASVWLFRGDFVMDYPRPIMPNMVFIGGINCANRKPLSQEFEAYINASGEHGIVVFSLGSMVSEIPEKKAMAIADALGKIPQTVLWRYTGTRPSNLANNTILVKWLPQNDLLGHPMTRAFITHAGSHGVYESICNGVPMVMMPLFGDQMDNAKRMETKGAGVTLNVLEMTSEDLENALKAVINDKSYKENIMRLSSLHKDRPVEPLDLAVFWVEFVMRHKGAPHLRPAAHDLTWYQYHSLDVIGFLLAVVLTVAFITFKCCAYGYRKCLGKKGRVKKAHKSKTH
notes: purchased Corning Biosciences
Broadly, the Km is the concentration of substrate that gives half-maximal velocity. On to B3, for which, in series [4] (setting [7]), the K0.5 was 0.45 ± 0.04 µM, the maximal velocity (Vmax) is 0.00017 µmol/min/mg and the Vmax/Km was determined as 360 µL/min/mg. In series [4] (setting [8]), the K0.5 was 0.61 ± 0.08 µM, the Vmax was 0.00023 µmol/min/mg and the Vmax/Km stood at 380 µL/min/mg. Further, in “not read [5]”, the Km worked out at 10.90 ± 0.74 µM, the Vmax worked out at 0.0002 µmol/min/mg and the Vmax/Km stood at 18.5 µL/min/mg.

B4: expressed human UGT1A8 (Homo sapiens) (protein)
chain: GKLLVVPMDGSHWFTMQSVVEKLILRGHEVVVVMPEVSWQLGKSLNCTVKTYSTSYTLEDLDREFMDFADAQWKAQVRSLFSLFLSSSNGFFNLFFSHCRSLFNDRKLVEYLKESSFDAVFLDPFDACGLIVAKYFSLPSVVFARGIACHYLEEGAQCPAPLSYVPRILLGFSDAMTFKERVRNHIMHLEEHLFCQYFSKNALEIASEILQTPVTAYDLYSHTSIWLLRTDFVLDYPKPVMPNMIFIGGINCHQGKPLPMEFEAYINASGEHGIVVFSLGSMVSEIPEKKAMAIADALGKIPQTVLWRYTGTRPSNLANNTILVKWLPQNDLLGHPMTRAFITHAGSHGVYESICNGVPMVMMPLFGDQMDNAKRMETKGAGVTLNVLEMTSEDLENALKAVINDKSYKENIMRLSSLHKDRPVEPLDLAVFWVEFVMRHKGAPHLRPAAHDLTWYQYHSLDVIGFLLAVVLTVAFITFKCCAYGYRKCLGKKGRVKKAHKSKTH
notes: purchased Corning Biosciences
As for B4, in series [6] (setting [7]), the K0.5 turned out to be 0.38 ± 0.03 µM, the Vmax was 2e-05 µmol/min/mg and the Vmax/Km was determined as 50 µL/min/mg. In series [6] (setting [8]), the K0.5 was 0.58 ± 0.07 µM, the Vmax was 7e-05 µmol/min/mg and the Vmax/Km turned out to be 120 µL/min/mg.

B5: expressed human UGT2B7 (Homo sapiens) (protein)
chain: GKVLVWAAEYSHWMNIKTILDELIQRGHEVTVLASSASILFDPNNSSALKIEIYPTSLTKTELENFIMQQIKRWSDLPKDTFWLYFSQVQEIMSIFGDITRKFCKDVVSNKKFMKKVQESRFDVIFADAIFPCSELLAELFNIPFVYSLSFSPGYTFEKHSGGFIFPPSYVPVVMSELTDQMTFMERVKNMIYVLYFDFWFEIFDMKKWDQFYSEVLGRPTTLSETMGKADVWLIRNSWNFQFPYPLLPNVDFVGGLHCKPAKPLPKEMEDFVQSSGENGVVVFSLGSMVSNMTEERANVIASALAQIPQKVLWRFDGNKPDTLGLNTRLYKWIPQNDLLGHPKTRAFITHGGANGIYEAIYHGIPMVGIPLFADQPDNIAHMKARGAAVRVDFNTMSSTDLLNALKRVINDPSYKENVMKLSRIQHDQPVKPLDRAVFWIEFVMRHKGAKHLRVAAHDLTWFQYHSLDVIGFLLVCVATVIFIVTKCCLFCFWKFARKAKKGKND
Consider B5, for which, in the series “not read [3]” (setting [11]), the K0.5 amounted to 2.34 ± 0.19 µM, the Vmax came to 3e-05 µmol/min/mg and the Vmax/Km came to 10 µL/min/mg. Further, in the series “not read [3]” (setting [12]), the K0.5 was 5.28 ± 0.98 µM, the Vmax was 1e-05 µmol/min/mg and the Vmax/Km stood at 2 µL/min/mg.
